These results are taken from US20100166772A1 (published 2010).

The target in experiment [1] is ORF0657n on the cell surface of S. aureus (S. aureus, UniProt A5IS15 41-613). The experiment in a line: cell-based or functional assay.
The target in experiment [2] is T1, ORF0657n [42-254] (CNBr fragment of ORF0657t, SDS PAGE band 7) (S. aureus, UniProt A5IS15 42-254).
T1 construct: also called 26 kDa band
T1 sequence: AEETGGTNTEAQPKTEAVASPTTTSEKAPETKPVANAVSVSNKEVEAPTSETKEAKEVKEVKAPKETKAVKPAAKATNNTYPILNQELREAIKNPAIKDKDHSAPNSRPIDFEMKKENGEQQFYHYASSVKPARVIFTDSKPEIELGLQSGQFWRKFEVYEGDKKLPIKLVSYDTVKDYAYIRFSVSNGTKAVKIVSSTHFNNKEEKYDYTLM
The experiment in a line: Western blot of CNBr fragments of ORF0657t, column Western negative, band 7.

For experiment [3], the target named is T2, ORF0657n [255-486] (CNBr fragment of ORF0657t, SDS PAGE band 7) (S. aureus, UniProt A5IS15 255-486).
T2 construct: also called 26 kDa band
The experiment is described as above.

In experiment [4] the target is T3, ORF0657n [254-384] (CNBr fragment of ORF0657t, SDS PAGE band 8) (S. aureus, UniProt A5IS15 254-384).
T3 construct: Limits as printed; also called 16 kDa band
Kind of experiment: Western blot of CNBr fragments of ORF0657t, column Western negative, band 8. (In western blotting, separated proteins are transferred to a membrane and probed.)

Experiment [5] deals with T4, ORF0657n [254-396] (CNBr fragment of ORF0657t, SDS PAGE band 8) (S. aureus, UniProt A5IS15 254-396).
T4 construct: Limits as printed; also called 16 kDa band
The experiment is described as above.

Experiment [6] concerns the target T5, ORF0657n [343-486] (CNBr fragment of ORF0657t, SDS PAGE band 8) (S. aureus, UniProt A5IS15 343-486).
T5 construct: Limits as printed; also called 16 kDa band
The experiment is described as above.

Experiment [7] deals with T6, ORF0657n [255-375] (CNBr fragment of ORF0657t, SDS PAGE band 9) (S. aureus, UniProt A5IS15 255-375).
T6 construct: Limits as printed; also called 13 kDa band
Kind of experiment: Western blot of CNBr fragments of ORF0657t, column Western negative, band 9.

Experiment [8] has as its target T7, ORF0657n [375-486] (CNBr fragment of ORF0657t, SDS PAGE band 9) (S. aureus, UniProt A5IS15 375-486).
T7 construct: Limits as printed; also called 13 kDa band
Described as above.

In experiment [9] the target is T8, ORF0657n [255-342] (CNBr fragment of ORF0657t, SDS PAGE band 10) (S. aureus, UniProt A5IS15 255-342).
T8 construct: Limits as printed; also called 10 kDa band
T8 sequence: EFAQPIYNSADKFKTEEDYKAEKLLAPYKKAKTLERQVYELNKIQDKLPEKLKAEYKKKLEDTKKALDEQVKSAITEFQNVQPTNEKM
Kind of experiment: Western blot of CNBr fragments of ORF0657t, column Western negative, band 10.

Experiment [10] addresses T9, ORF0657n [397-486] (CNBr fragment of ORF0657t, SDS PAGE band 10) (S. aureus, UniProt A5IS15 397-486).
T9 construct: Limits as printed; also called 10 kDa band
Described as above.

The target in experiment [11] is T10, ORF0657n [156-254] (CNBr fragment of ORF0657t, SDS PAGE bands 9 and 10) (S. aureus, UniProt A5IS15 156-254).
T10 construct: Limits as printed; also called 13 kDa band; 10 kDa band
T10 sequence: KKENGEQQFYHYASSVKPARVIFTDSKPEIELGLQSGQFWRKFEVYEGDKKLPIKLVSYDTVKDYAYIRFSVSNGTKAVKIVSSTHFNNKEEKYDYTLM
The experiment in a line: Western blot of CNBr fragments of ORF0657t, column Western negative, bands 9 and 10.

Chain of ORF0657n on the cell surface of S. aureus (A5IS15 41-613 limits assumed): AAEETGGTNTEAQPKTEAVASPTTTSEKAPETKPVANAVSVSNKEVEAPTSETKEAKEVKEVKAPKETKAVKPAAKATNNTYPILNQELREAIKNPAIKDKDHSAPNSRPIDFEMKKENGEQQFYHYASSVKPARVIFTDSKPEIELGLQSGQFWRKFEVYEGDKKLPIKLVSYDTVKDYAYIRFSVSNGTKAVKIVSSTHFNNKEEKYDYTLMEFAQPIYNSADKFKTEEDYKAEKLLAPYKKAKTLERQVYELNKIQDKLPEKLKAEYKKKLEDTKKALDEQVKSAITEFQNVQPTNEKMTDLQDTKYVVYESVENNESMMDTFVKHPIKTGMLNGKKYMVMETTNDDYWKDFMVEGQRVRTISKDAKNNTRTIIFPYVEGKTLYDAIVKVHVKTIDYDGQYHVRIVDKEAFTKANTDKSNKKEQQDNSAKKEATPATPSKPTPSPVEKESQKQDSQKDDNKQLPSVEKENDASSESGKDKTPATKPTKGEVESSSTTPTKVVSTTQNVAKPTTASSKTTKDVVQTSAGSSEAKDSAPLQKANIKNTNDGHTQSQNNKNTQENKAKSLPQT
T9 sequence (A5IS15 397-486): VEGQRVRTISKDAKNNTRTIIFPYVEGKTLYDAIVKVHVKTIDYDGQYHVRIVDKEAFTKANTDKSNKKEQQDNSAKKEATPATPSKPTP
T4 sequence (A5IS15 254-396): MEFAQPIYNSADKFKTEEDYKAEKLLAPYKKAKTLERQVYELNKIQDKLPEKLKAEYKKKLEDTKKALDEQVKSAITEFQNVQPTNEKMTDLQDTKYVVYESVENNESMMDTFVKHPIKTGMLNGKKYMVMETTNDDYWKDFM
T3 sequence (A5IS15 254-384): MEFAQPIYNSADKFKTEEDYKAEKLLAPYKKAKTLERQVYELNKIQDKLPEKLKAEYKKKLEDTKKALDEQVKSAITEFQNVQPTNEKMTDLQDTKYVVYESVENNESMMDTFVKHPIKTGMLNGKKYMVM
T7 sequence (A5IS15 375-486): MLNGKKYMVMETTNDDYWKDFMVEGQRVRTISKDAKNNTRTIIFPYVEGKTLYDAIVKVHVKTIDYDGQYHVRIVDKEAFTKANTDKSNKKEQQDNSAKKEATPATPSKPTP
T5 sequence (A5IS15 343-486): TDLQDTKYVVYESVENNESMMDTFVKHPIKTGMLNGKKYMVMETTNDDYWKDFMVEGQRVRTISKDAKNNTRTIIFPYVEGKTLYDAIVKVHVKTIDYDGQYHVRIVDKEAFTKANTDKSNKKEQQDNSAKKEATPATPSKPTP

B1: mAb CS-D7 (antibody, human IgG1, kappa, V domains shown)
VH: QVQLQESGPGLVKPSETLSLTCTVSGGSIRSSSYYWGWFRQTPGKGLEWLGNVFFSGSAYYNPSLKNRVTISIDTSENQSSLKLTSVTAADTAVYYCARPQAYSHDSSGHSPFDLWGRGTLVTVSS
VL: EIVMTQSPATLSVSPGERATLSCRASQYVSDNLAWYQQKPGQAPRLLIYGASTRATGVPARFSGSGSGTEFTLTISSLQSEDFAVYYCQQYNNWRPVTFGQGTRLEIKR
notes: also called D7 IgG; full length IgG CS-D7
For B1, in experiment [1], the “EC50 (read off the curve)” value was ~0.02 ug mAb. The binding result in experiment [2], in experiment [3], in experiment [4], in experiment [5], in [6] and in experiment [7] was “no binding” throughout. Besides, the binding result in experiment [8], in [9], in experiment [10] and in [11] was “no binding” throughout.
